{
  "source": "paper PMC6798810",
  "test_in_all_cases": "EMSA",
  "settings_in_all_cases": "EMSA: 15 ng/uL PCR product, 0.01-0.6 uM His-tagged protein, 45 min; MHQ 30 min, then DTT 30 min; buffer, pH and temperature not given (cited to ref. 44)",
  "key": {"[1]": {"tested_on": "T1, MhqR (Staphylococcus aureus COL), ORF:0a4449b0", "T1 sequence": "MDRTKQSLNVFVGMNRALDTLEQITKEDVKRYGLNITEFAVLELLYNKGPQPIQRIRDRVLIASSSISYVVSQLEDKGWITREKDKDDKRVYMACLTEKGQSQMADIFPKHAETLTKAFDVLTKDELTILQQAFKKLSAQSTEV"}, "[2]": {"tested_on": "T2, MhqR C95A C95A (Staphylococcus aureus COL), ORF:0a4449b0", "T2 sequence": "T1 sequence with C95A"}, "[3]": {"tested_on": "MhqR C95A (Staphylococcus aureus COL)"}, "[4]": {"tested_on": "MhqR (Staphylococcus aureus COL)"}},
  "note": "Residue numbers refer to the chain shown, from its start.",
  "data": [
    {"substance": "ACATATCAACTCCTATCATGATTGATTATAGTATTTCCCTATTCTATTTTAACTTAAACGAAGTCAAAGGTGCATGACAGTCATGTGACGACATTGCCACATCTATGTAGTCGTTTTTATTAAGCACAGTTTGAAATGAAGATGAAAACACGTATCTTGACATTAAATCTATTCAGTTATATAATTTATCCCTAAATCGAAATAAAATAAAAAAGTTGGTGATCATATGGATCGAACG (double strand) [PmhqRED m1]", "values": [
      {"measurement": "binding", "setting": "[1]", "result": "no binding"}
    ]},
    {"substance": "ACATATCAACTCCTATCATGATTGATTATAGTATTTCCCTATTCTATTTTAACTTAAACGAAGTCAAAGGTGCATGACAGTCATGTGACGACATTGCCACATCTATGTAGTCGTTTTTATTAAGCACAGTTTGAAATGAAGATGAAAACACGTATCTTGACATTAAATCTATTCAGTTATATAATTTATCTCGAAATAGGAATAAAATAAAAAAGTTGGTGATCATATGGATCGAACG (double strand) [PmhqRED m2]", "values": [
      {"measurement": "binding", "setting": "[1]", "result": "no binding"}
    ]},
    {"substance": "ACATATCAACTCCTATCATGATTGATTATAGTATTTCCCTATTCTATTTTAACTTAAACGAAGTCAAAGGTGCATGACAGTCATGTGACGACATTGCCACATCTATGTAGTCGTTTTTATTAAGCACAGTTTGAAATGAAGATGAAAACACGTATCTTGACATTAAATCTATTCAGTTATATAATTTATCTCGAAATCGAAATAAAATAAAAAAGTTGGTGATCATATGGATCGAACG (double strand) [PmhqRED promoter probe]", "values": [
      {"measurement": "Kd", "setting": "[1]", "result": 7.38, "unit": "nM"},
      {"measurement": "Kd", "setting": "[2]", "result": 14.2, "unit": "nM"}
    ]},
    {"substance": "PmhqRED promoter probe", "values": [
      {"measurement": "Kd", "setting": "[3]", "result": 14.2, "unit": "nM"},
      {"measurement": "Kd", "setting": "[4]", "result": 7.38, "unit": "nM"}
    ]}
  ]
}
